Measured values from article PMC4826628.

Target: Dlx5[Q178P] homeodomain (Homo sapiens, UniProt P56178 137-198, Q178P)
Assay: CD thermal denaturation

Dlx5[Q178P] homeodomain, sequence (P56178 137-198 Q178P): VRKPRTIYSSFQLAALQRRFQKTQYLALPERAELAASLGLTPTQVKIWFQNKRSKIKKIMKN

B1: 14-bp palindromic TAAT duplex (dsDNA)
DNA 1: CGACTAATTAGTCG
DNA 2: CGACTAATTAGTCG
binding result: binds
